Results published in the domain aggregation screens of Martell et al. (2025).

Assay: soluble fraction after stress (log2 fold change); higher = more stays soluble; pooled small domains, quantitative proteomics
Settings: stress: 75 degC
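Note: 20 min heating vs room temperature control held 20 min.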

Sequence | soluble fraction (log2)
HMDPGPVLISAQVLDDLEAIRRDGSSNMLDWPAVARLAEVMGMDRTAAWVRTHHREYSAGIFRGFASD | -1.93
HMDPHEEELLRQLIRGDIAGYEVLFHKYYPTFFAFIKGMTKETVVAEDITQNIFMKVWLNRERLDAA | -0.145
HMDPIATLTPREREVLSLMAEGRSNGAIAAALVVGDGAVEKHVSNIFQKLELTPAEGDHRRVLAVLRWLE | -0.909
HMDPLADLFSRIRNAQMRNKKVVTSPASKLRAGILEVLAKEGYIRGYAMTQHASGKNELDIELN | -1.05
HMDPNAITSAQVTKLQVLANEKGFAERQARLTMWAEVIGRNVGTANELTKAEAHKLIEHMDALPV | -0.691
HMDPNFKYIIRIANSDVSGEQKLAYALTSIRGIGERTSNAIIQKLGLDSTQLAGKLTDKNVEDIESA | 0.092
HMDPPQEVWDLTRSYLDSMNRPVHGHKSPQETYLRQVKSHRLPATALWDYFMAQRFHAVHATSESAA | -0.127
HMDPPYKDKNLHELLLKINNLNILKKDSVIILHRHKKQKEIFPSNFKIIEQKQYGISKIIFLTVL | -0.00334
HMDPRTSSLTPQERKVLELVGGGLTNRQIAAEMFLAEKTVKNYVSSLLAKLGFERRTQAAVFIASPAF | -0.54
HMDPSKLVEVQEPVSMKALSEGLGIKVTELIATFAFKLKIGGKNINSMLSNDEVELVALDLERNIKVV | 0.258
HMDPTEPLFVGVVTAEPYLNIREYPTTQSKDLGDLFPGMHVNVYEIVPNWYRIDDGWVASAWVKRDWGGG | -0.478
HMDPTIRRGELIDAASRLFLSKGYAATSVRDILDEVGNRTASPSVFYYYFKSKEEIYQAVLRRHSE | -1.51
HMDPTVSGQTGSVVREIRPGVPGEVELSVPLYGIRRWQAMADGILAEGTRVTVIQAEGVRLSVRPV | -1.24
HMDPTVTFIVQVNGRVRDKITLSSDISENEAKNVALESPKITPHISGKSLSRVIFVPGKLINLVV | -1.06
HMDPVATLTPREREVLELMAEGRTNAGIAEAMVVTEGAVEKHIQRIFAKLGLHADGGVHRRVAAVLALLG | -1.38
HMDQDIILHKVQPGDTLSKILLHYHSHQDRNKLQGLIAESMTANPFIKNPDLIYPGQLIQVPVPA | 0.0879
HMDQFMLQSAWLRAVQHVMKHTDDVGTQFAEEARRMHYGEADERPIRGQATSDEARALHDEGIEVMALPI | -0.36
HMDQILIHLKEGIDVTDVQPMLKALDLNVRMFNRDKNIIVISVLNRELDAIPQTIAALRPWEELFDSA | 0.171
HMDQNVSVPKLAGLQVEEANAILKSKGLHIEIIDSIYQKDAVPGAIIEQVPEENSKVKKGRAIYVSVYAK | -0.65
HMDQVYYDLKSLIELLPADQMEVLKMRYFEELSFKKIAQKIDVSINTALGRMRYALINLRALSKKHHID | -0.272
HMDRDMGSMTDFENVRDAYLTGKVWNVGDLIEANGITGIIIRKGTNYVSYNDGDGKVHKAWLHDITL | -0.802
HMDREILWTNYVAARKQEFIASSIDTIGAEYLDNRRFWDTQFEREWTIIAERLASGFGLTDDILSIVGSDF | -4.12
HMDRETEEYELIRAKLEWLYQKQTGTIRNQTAKILHHLEIAKEEGNYYLYLKIKEEAKQWLVQASMYLD | -0.638
HMDRGDVTREALIKAAIEIFGRDGFHAASTRAIAERAGANQALIGYHFRGKLGLYHATFEYIIGKI | -0.351
HMDRMINYSPIVAKVPQDDYTTKVYNIPIYSELTVVDKISEPEPLIAPIYRFKYITPEDEEIEFDIPV | -0.00941
HMDRMMQPETWGRVYQWITDDPQVPDREEVLTLIKYHYGDFGKLMKLLHRLNEGKAWTYLSEHIFPRM | -0.254

Sequence | soluble fraction (log2)
HMDRNEFVSTLRAALTGAVSPAIVEDNVRYYQNYISQEIASGKSEKEVLDGLGDPRLIARTIIDT | 0.0747
HMDRNIVYSDFIRSVNQGQVSEVLVQGDNIRGRYLNGKVFQTFAPKDPSLISTLRNKGVRISAEPA | 0.00952
HMDRRSTTLQDIYTRIDAEEISEALELIPKLGEIEFEQNRAEIAEAAGVRPAVLDKLRKQAAKQENNKK | -0.00584
HMDRSAQVLFLEHARSRLPQRIQWAEELAELLSIGIDSAYRRIRGETALTFNEAVSVSRKYDISLDYLFK | -3.79
HMDRSKREKEQQELMLKVQQIFDDNQQRFGAEKIRTVLAQNGVRVSVKRVSAIMQELNLRSIR | -2.36
HMDRVMPVPEALIGMRFDIAVSRMLGVSRSQAAAYIDRGQVSIAGRGSQRSAQKSEKLVQGDSIEVAIA | -1.39
HMDRWSLLTLTTLAGGTLRFTELKRAIGDISQRMLAQTLRTLEREGYVSRKVYATIPPKVEYRLTALGQSL | -3.21
HMDRYAVRAEELAAALAQYHRHVGVYPENLEDLIAPTGPRGYRGPYLSELPTNPSTSKPDWGYDPATGRVS | 0.432
HMDSAFVSDIRDAFDEAGVDSYRFFGTHSFKRGGVQLYRLLGVSDQEIKERGHWQTFSAYFAYVQA | 0.164
HMDSESGAIIRRAVAQLAPKFRSTIVLRLIEGYSTEETAQILQLPVGTVLSRLARAKVQLMNLLTPYKEL | -0.0893
HMDSIDIDAETKSLGPNAPQIIKGIKEWGQGLVAKGVWSDQDFEEFKVFAATANGINALNKVRKFY | -0.037
HMDSIDVQQKKLLTDIELGNIEGIKLFLKRHNNTINFLTIKGFHPLVYAVRNNNMEIVNLFLTT | 0.149
HMDSIGTQIRKLREEAEMPLRKLSALLDIDQSTLSKIERDERRANTQMIEQIAKIFKVNKEQLLVA | -0.77
HMDSKPNDLLFVYVSQLIRSLTLNSSKKDSELADELEVSISQIRIWLKKLINEQLIVKESKPVKYRWKG | -2.84
HMDSLARKTVNGAEFYIYPVESAEGFYSLRRKFGVSQEEVIKYNPSAQNGLKSGQVLLIPVT | -0.298
HMDSLQDFAYEEIKKRIQNGEYAPGTKLNTQEISDSLGISRSPVLAAINRLIALGLVEATPRKGTTVA | -0.116
HMDSLSGQQGRVLEEINGFLQTGKVLLNGMEWSAVSKQPEDILPVDTEVVVVRVEGAHLVVKKA | -0.286
HMDSPRITMDQLRIGLYVYLDLTWFQHPFAFSHFKINSEDQIKTILGLGLKSVRYDPALSDPV | -2.91
HMDSQSVFADLVKSLSQKIASIPVWFEYTKNEQYDLISSYVSAKLKDLGVEFSQEEKEKFITMFMNS | -0.609
HMDSRQIIAALQARYADETGITALKIKFNNVLGYFVDVPARYGDPLMKPPLSETFIHRQTLASNVRF | -0.0679
HMDSSITLMRMYIPKGHNWENKLISDVSMPTNSLALMIKRNGTTIIPKGDTMILAKDTLILSVPSYEPS | -2.6
HMDSSNLSLIAGVGPTIEKKLRAAGITSWEQIAAWTEADVAKYDEELNLRGRITRDEWIEQAKELLAGKPP | 0.0267
HMDSTLDLVATQGGRLDQVLAEMIPEHSRNRLQHWIKAGRVLVDGQPVLEPKHKIYGGEDLAVRVD | 0.215
HMDSVSAVRTTHLNSYVLLLEKDGMAAATISRYIASMKGFFEYLFREHMIEEDPAFTLKPPKV | 0.009
HMDSVVPNVVGMTAEKANKALTDAGLNVKITGATIGSGAVVHSQSIPAGTVTSKGTVVSIEMRFAAAEGD | -0.242
HMDSYSILGIEKESSMEDIEKAYIDKISKIKKEVKNEKNAAAFEAVLTKAYNDILSQKENISEEQELAE | 0.0885

Sequence | soluble fraction (log2)
HMDTAGSVAIVSKSVIENGFGEIKYKGTYFKAQSDVYIPKDQMVKVIGKGDEQGSFLIVEKLN | 0.0706
HMDTIASESVRNRIEELISNENPKKPLSDQALVKMLQEFDIKIARRTVAKYREMLKIPPSSKRKQV | -0.265
HMDTIGSKVLAFLAGNLLDPTPFNYRFGYLYLNRTSKVIVEETDTYIDSGMRMTQEAVAEIMQKFAQ | -4.12
HMDTITMAGERYAVSDLEKVSGDIFEKAFGFEIDPKTADAKDVLPTMPKSDVDLFKKLSGIKP | 0.401
HMDTIYPFNPNFIDDYKGYVLGLNTNEIDRLLKYRSKGNWINSAEDFKKVTGIDDALLNKLSKSFKFPDWL | -1.81
HMDTLRPLGRYQNVHLTKQELTALQSEFSDWSERIERLSSYMASTGRKYQNHAATIRLWAEKDK | 0.0841
HMDTMINLIGLNLKKAKKELSNLGVNVKKVRYKKSSVYDEGVVIDQSIEAGRNIKNGDFITITVSSGKA | -0.473
HMDTNEPFAQLQLRFTDPIQYDYEVIRPVVLFSQSVTDRSDETEMPRTTVREKARQFVTEGMLGLVDK | 0.166
HMDTNTIIGLRIKALRTEKKYTLKYLSENSGLSIGFLSQLERGMTSVAIDSLDKISKVLDVELSSFFN | -3.05
HMDTPMQEAVLQRLRDKVAQAAAGSKLPTVRQLIADYGVGQHVIQAALEKLRTEGLITSHVGKGTFVG | 0.325
HMDTPMYMAIIEEVRFQIANEILKEGEQLPSIRNLAKTLKVSVITVKRAYKELEEAGYITTIPAKGSKVS | -1.16
HMDTQKYDLNDDGRFDVQDVTYLQIKIAGDGELTDNQKKIADYNNDGKIDVQDVTSAQMLIS | 0.023
HMDTSADEVKQLIASFVEQEDKRKPLSDQKIVELLAEKEQKISRRTVAKYRDALNIPSSSKRKRF | 0.469
HMDTSISHLVGRTGEAVTDLRPAGTVMIDGELYDARATEGFIEKGEIVKAIKYQYGQLNVRRVSK | 0.00609
HMDTVSYSTLLRDIDAKEIKQLDLVPGRREVRVQYNDGRRVTVPVFANDNQILRAAESSGTPLTVV | 0.0297
HMDVADITGTRKAAILLLTMDEELSKELLKEFERHEIEAIGKEIANIKYIPENIVKQVHSEFLKNINKS | -0.282
HMDVFTAKTASHIQELREKLGQQAVFGRSDVQNALGLKATRSSALLREMAEHGIIEPVTGYGKGRYHFRS | 0.204
HMDVIDDAQAMEIALEDAGLSMDDLDRYELELHTKRSELVYSIELKSGTEEYEYDLRAADGTILKRDTDF | 0.0166
HMDVLDVADNVNDDMSFADAFAAARSEVGAGGIFYWHGKAYGTYYENEWAGMSEEDKADYWDAVARTTS | -0.144
HMDVLSPEEWIEFRTAYNNNRYISQYGSKGATIEDDYATRLAMIGGKESYYFLNDPRWTEPGYGNLK | -0.5
HMDVMNEIQQKAFDIYIQSASLKNDFTPISERALAKKLHDMGLKSSMSAIGRWKKKFGWVQSLQNKVTLA | -0.173
HMDVNKDLLGETLEKAKSYKADDWRKASYEALQKAIVEAEAVYKDEEADQVAVDRKVAALNKAINNLEAKG | 0.475
HMDVNPETLSYYIERADISLDELRTSVKGIDLFLTGEKQPTFNQISNIAKKLNIPTGLLLINKPIEI | -0.645
HMDVNSRIRQFLKKMKITVQTFESSIGKTNGYIAHTKSPTAGVLAEIAKVYPDLNLDWLITGEGEMLKN | -1.42
HMDVPTSSITEVKKSPMDVFAQARKAETGVYIFNREKIAGVMLTKEQYEALVEELNTLRDTL | -0.68
